Laboratory results as given in patent US20150166606A1 (RA PHARMACEUTICALS, published 2015).
Like-named read-outs stand apart in the source and are kept apart here. Numbered stars: 1 amine (or outer) side, 2 acyl side, 3 side chain; on linkers, the order of the positions; unused ones are H or OH. Bridge positions count the residues as written; N and C are the ends. Square brackets hold non-standard residues; d marks the D form. Primed or numbered codes have the meaning given here. Ends that are not written are not given here. ABP = 2-amino-3-(5-bromothiophen-2-yl)propanoic acid, O=C([C@H](Cc1ccc(Br)s1)N[*:1])[*:2]; mXylyl = xylyl linker from dibromoxylene joining the two cysteines; des‑NH2 = missing amino-terminal amine group; Phe(4-amidino)′ = not defined here; Igl = N[C@H](C(=O)O)C1Cc2ccccc2C1; NMeR = CN[C@@H](CCCNC(=N)N)C(=O)O; dPhg = N[C@@H](C(=O)O)c1ccccc1; Chg = N[C@H](C(=O)O)C1CCCCC1; Phg = N[C@H](C(=O)O)c1ccccc1; Tle = CC(C)(C)[C@H](N)C(=O)O; Nva = CCC[C@H](N)C(=O)O

B1: R2141 (peptide)
peptide: Ac-[Nva]NYWSPWTA[Nva]-NH2
SMILES: CCC[C@H](NC(=O)[C@H](C)NC(=O)[C@@H](NC(=O)[C@H](Cc1c[nH]c2ccccc12)NC(=O)[C@@H]1CCCN1C(=O)[C@H](CO)NC(=O)[C@H](Cc1c[nH]c2ccccc12)NC(=O)[C@H](Cc1ccc(O)cc1)NC(=O)[C@H](CC(N)=O)NC(=O)[C@H](CCC)NC(C)=O)[C@@H](C)O)C(N)=O
B2: R2139 (peptide)
peptide: Ac-[Nva]NYWSPWTAC-NH2
SMILES: CCC[C@H](NC(C)=O)C(=O)N[C@@H](CC(N)=O)C(=O)N[C@@H](Cc1ccc(O)cc1)C(=O)N[C@@H](Cc1c[nH]c2ccccc12)C(=O)N[C@@H](CO)C(=O)N1CCC[C@H]1C(=O)N[C@@H](Cc1c[nH]c2ccccc12)C(=O)N[C@H](C(=O)N[C@@H](C)C(=O)N[C@@H](CS)C(N)=O)[C@@H](C)O
B3: R2220 (peptide)
peptide: {des‑NH2}-CP[dPhg]C[ABP][Tle]-NH2
modifications: bridge 1-4; not fully specified (residue 1, bridges); printed as [mXylyl(1,4)](des-NH2)C-P-(D-Phg)-C-ABP-Tbg-NH2
B4: R2219 (peptide)
peptide: {des‑NH2}-CP[Phg]C[ABP][Tle]-NH2
modifications: bridge 1-4; not fully specified (residue 1, bridges); printed as [mXylyl(1,4)(des-NH2)C-P-Phg-C-ABP-Tbg-NH2
B5: R2140 (peptide)
peptide: Ac-CNYWSPWTA[Nva]-NH2
SMILES: CCC[C@H](NC(=O)[C@H](C)NC(=O)[C@@H](NC(=O)[C@H](Cc1c[nH]c2ccccc12)NC(=O)[C@@H]1CCCN1C(=O)[C@H](CO)NC(=O)[C@H](Cc1c[nH]c2ccccc12)NC(=O)[C@H](Cc1ccc(O)cc1)NC(=O)[C@H](CC(N)=O)NC(=O)[C@H](CS)NC(C)=O)[C@@H](C)O)C(N)=O
B6: R2218 (peptide)
peptide: {des‑NH2}-CP[Igl]CR[Tle]-NH2
modifications: bridge 1-4; not fully specified (residue 1, bridges); printed as [mXylyl(1,4)](des-NH2)C-P-Ind-CR-Tbg-NH2

Key:
[1] = biological target: T1, Activated human plasma kallikrein (Enzyme Research Laboratories, HPKa 1303) (human, UniProt P03952 20-638); assay: cell-based or functional assay
[2] = biological target: T1, Activated human plasma kallikrein …; assay: cell-based or functional assay; remark: listed apart in the source

T1 sequence (P03952 20-638 limits assumed): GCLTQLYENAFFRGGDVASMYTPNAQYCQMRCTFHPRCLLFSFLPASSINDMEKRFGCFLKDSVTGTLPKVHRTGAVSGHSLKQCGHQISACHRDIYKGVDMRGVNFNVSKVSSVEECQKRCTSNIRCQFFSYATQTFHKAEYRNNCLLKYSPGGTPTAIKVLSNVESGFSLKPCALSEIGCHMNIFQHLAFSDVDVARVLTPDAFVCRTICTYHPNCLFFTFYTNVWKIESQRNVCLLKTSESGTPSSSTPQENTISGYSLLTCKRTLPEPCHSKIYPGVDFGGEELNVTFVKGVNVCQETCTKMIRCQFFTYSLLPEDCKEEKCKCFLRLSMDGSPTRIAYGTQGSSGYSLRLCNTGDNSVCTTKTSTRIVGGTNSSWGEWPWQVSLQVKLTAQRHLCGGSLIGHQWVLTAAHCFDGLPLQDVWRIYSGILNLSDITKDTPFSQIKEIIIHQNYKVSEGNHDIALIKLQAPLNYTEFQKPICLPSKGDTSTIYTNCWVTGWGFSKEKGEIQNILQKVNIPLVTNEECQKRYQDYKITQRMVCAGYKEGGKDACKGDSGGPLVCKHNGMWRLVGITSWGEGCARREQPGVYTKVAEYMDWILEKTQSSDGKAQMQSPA

Binder	Avg. IC50 [1] [nM]	Avg. IC50 [2] [nM]
MCNYWSPWTE-NH2 [R2112]	2.4	–
B1	157	–
MCNYWSPWTSE-NH2 [R2123]	25.5	–
{des‑NH2}-CP[dPhg]CR[Tle]L[NMeR]YSE-NH2 (linker 1-4 via mXylyl) [R2217]	–	114
Ac-CNYWSPWTAC-NH2 (cysteine pairing not given here) [R2128]	2.5	–
MSNYWSPWTESSA-NH2 [R2107]	128	–
MCNYWSPWTSEIC-NH2 (linker 2-13 via mXylyl) [R2109]	9.2	–
Ac-CNYWSPWTEA-NH2 [R2127]	35.6	–
Ac-CNAWSPWTEC-NH2 (cysteine pairing not given here) [R2133]	39.1	–
MCNYWSPW-NH2 [R2114]	349	–
{des‑NH2}-CP[Phg]CR[Tle]L[NMeR]YSE-NH2 (linker 1-4 via mXylyl) [R2216]	–	0.913
B2	65.3	–
Ac-CNYWSPWTC-NH2 (cysteine pairing not given here) [R2134]	86.7	–
Ac-WSPWTECSA-NH2 [R2119]	> 100000	–
Ac-CNYWSPWTECSA-NH2 (cysteine pairing not given here) [R2116]	3.5	–
Ac-CNYASPWTEC-NH2 (cysteine pairing not given here) [R2132]	4110	–
{des‑NH2}-CP[Phg]C[Phe(4-amidino)′]V-NH2 (linker 1-4 via mXylyl) [R2215]	–	6390
MCNYWSPWTSEIC-NH2 (cysteine pairing not given here) [R2105]	4.4	–
B3	–	> 100000
MCNYWSPWT-NH2 [R2113]	88.8	–
MCNYWSPWTSEI-NH2 [R2122]	30.4	–
MCNYWSPWTECSA-NH2 (linker 2-11 via mXylyl) [R2108]	4.1	–
Ac-CNYWSPATEC-NH2 (cysteine pairing not given here) [R2130]	5300	–

Binder	Avg. IC50 [1] [nM]	Avg. IC50 [2] [nM]
Ac-CNYWAPWTEC-NH2 (cysteine pairing not given here) [R2131]	127	–
Ac-NYWSPWT-NH2 [R2106]	374	–
Ac-CNYWSPWT-NH2 [R2135]	144	–
Ac-PWTECSA-NH2 [R2121]	10300	–
MCNYWSP-NH2 [R2115]	> 17300	–
B4	–	> 100000
{des‑NH2}-CP[Chg]CR[Tle]-OH (linker 1-4 via mXylyl) [R2214]	–	4000
{des‑NH2}-CP[Phg]C-{4‑(aminomethyl)benzimidamide} (linker 1-4 via mXylyl) [R2221]	–	401
Ac-YWSPWTECSA-NH2 [R2118]	> 100000	–
Ac-CNYWSPWTECSA-NH2 (linker 1-10 via mXylyl) [R2125]	10.6	–
Ac-CNYWSPWTAC-NH2 (linker 1-10 via mXylyl) [R2136]	6.1	–
Ac-CNYWSAWTEC-NH2 (cysteine pairing not given here) [R2137]	57.2	–
MCNYWSPWTEC-NH2 (cysteine pairing not given here) [R2111]	3.8	–
Ac-NYWSPWTECSA-NH2 [R2117]	43.9	–
B5	105	–
Ac-CNYWSPWTEC-NH2 (cysteine pairing not given here) [R2126]	1.4	–
MCNYWSPWTS-NH2 [R2124]	54.6	–
Ac-CNYWSPWAEC-NH2 (cysteine pairing not given here) [R2129]	12.3	–
B6	–	3
Ac-SPWTECSA-NH2 [R2120]	> 100000	–
Ac-ANYWSPWTEC-NH2 [R2138]	22.3	–
{des‑NH2}-CE(PEG 40 kDa)[Chg]CR[Tle]-NH2 (linker 1-4 via mXylyl) [R2213]	–	462
MCNYWSPWTECS-NH2 (cysteine pairing not given here) [R2110]	3.5	–
